One series has as its target T1, TgCBS R353* (Toxoplasma gondii, UniProt A0A125YSJ9).
T1 construct: gene TGME49_259180; C-terminally truncated (stop codon at R353; residues 353-514, Bateman module, removed), residues 1-352; N-terminal 6xHis tag; pET21a, E. coli Rosetta (DE3); 39 kDa; mainly dimer
The experiment in a line: UV-Vis absorption ([…] nm internal aldimine); PLP content by NaOH, […] nm. The class given is binding. Conditions: stoichiometry; covalent internal aldimine, as purified.

The next series has as its target T2, full-length TgCBS (Toxoplasma gondii, UniProt A0A125YSJ9).
T2 construct: gene TGME49_259180; full-length, residues 1-514; N-terminal 6xHis tag; E. coli Rosetta (DE3); ~57 kDa subunit; mainly dimer
T2 sequence (A0A125YSJ9 1-514): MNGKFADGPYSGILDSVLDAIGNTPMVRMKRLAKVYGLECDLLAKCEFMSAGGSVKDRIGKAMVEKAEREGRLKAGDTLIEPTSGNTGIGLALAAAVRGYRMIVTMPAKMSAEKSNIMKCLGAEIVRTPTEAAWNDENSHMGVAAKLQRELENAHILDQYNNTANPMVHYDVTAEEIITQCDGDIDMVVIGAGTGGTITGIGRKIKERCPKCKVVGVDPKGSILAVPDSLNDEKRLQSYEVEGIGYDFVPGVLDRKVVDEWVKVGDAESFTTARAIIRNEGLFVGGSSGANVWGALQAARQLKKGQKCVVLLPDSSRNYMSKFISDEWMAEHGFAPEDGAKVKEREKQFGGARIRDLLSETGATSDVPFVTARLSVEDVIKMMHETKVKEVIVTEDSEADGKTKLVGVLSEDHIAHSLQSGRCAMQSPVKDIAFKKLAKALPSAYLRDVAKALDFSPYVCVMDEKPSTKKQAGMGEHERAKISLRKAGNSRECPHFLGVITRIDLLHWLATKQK
The experiment in a line: continuous CBL-LDH coupled assay. The settings on record: saturating L-Ser and L-Hcys; pH 9, 37 °C; activity after heat pre-treatment or trypsinolysis. The class given is biochemical.

Series [1] has as its target Proteolysed full-length TgCBS (39 kDa trypsin-resistant core) (Toxoplasma gondii). The series is described as follows: SEC; 250 ug TgCBS incubated with trypsin 1:200 (w/w) for 120 min, stopped with a two-fold weight excess of soybean trypsin inhibitor, loaded on Superdex 200 10/300 GL; TgCBS R353* at 0.5 mg/mL run for comparison.
Series [2] concerns the molecule itself. The series is described as follows: SEC; Superdex 200 10/300 GL, protein at 1 mg/mL, 20 mM sodium phosphate buffer pH 8.5, 150 mM NaCl, 0.1 mM DTT; calibrated with standard proteins. (Size exclusion chromatography separates by hydrodynamic size, large species first.)
Series [3] deals with the molecule itself. The series is described as follows: native gel or EMSA; native PAGE at 8, 9, 10 and 12% polyacrylamide, 10 ug/lane, Coomassie staining, Ferguson plot analysis with molecular mass standards.

Several values for one entry are separate records, joined by “and”; a condition that tells them apart may be missing. Identical values can stand only once. Marks after values point to notes of the source that are not given here.

Experimental findings from paper PMC9331509, “Insights into Domain Organization and Regulatory Mechanism of Cystathionine Beta-Synthase from Toxoplasma gondii” (International Journal of Molecular Sciences, 2022) are described below.

A word on the stoichiometry N: it is a count of units in the complex or per binding partner.

Take `Cc1ncc(COP(=O)(O)O)c(C=O)c1O` [PLP]: the PLP per monomer at TgCBS R353* was determined as 0.9 ± 0.1 mol/mol.

In the case of `N[C@@H](CO)C(=O)O` [L-Ser], the “continuous CBL-LDH coupled assay” value at full-length TgCBS is “full-length TgCBS (solid triangles) and TgCBS R353* (open circles) on their steady-state initial velocity”.

On to `N[C@@H](CCS)C(=O)O` [L-Hcys], for which, at full-length TgCBS, the “continuous CBL-LDH coupled assay” value is “at saturating concentration of L-Ser and L-Hcys in the canonical reaction”.

Regarding “Proteolysed full-length TgCBS (39 kDa trypsin-resistant core) (from UniProt A0A125YSJ9 1-514) (domain or fragment)”, the stoichiometry N in series [1] is 2.

B1: TgCBS R353* (TgCBS lacking the C-terminal Bateman module) (domain or fragment, Toxoplasma gondii, UniProt A0A125YSJ9 1-352, looked up)
chain: MNGKFADGPYSGILDSVLDAIGNTPMVRMKRLAKVYGLECDLLAKCEFMSAGGSVKDRIGKAMVEKAEREGRLKAGDTLIEPTSGNTGIGLALAAAVRGYRMIVTMPAKMSAEKSNIMKCLGAEIVRTPTEAAWNDENSHMGVAAKLQRELENAHILDQYNNTANPMVHYDVTAEEIITQCDGDIDMVVIGAGTGGTITGIGRKIKERCPKCKVVGVDPKGSILAVPDSLNDEKRLQSYEVEGIGYDFVPGVLDRKVVDEWVKVGDAESFTTARAIIRNEGLFVGGSSGANVWGALQAARQLKKGQKCVVLLPDSSRNYMSKFISDEWMAEHGFAPEDGAKVKEREKQFGGA
notes: Cystathionine beta-synthase (TgCBS), Toxoplasma gondii, residues 1-352 (catalytic domain and interdomain linker); 39 kDa subunit; made by site-directed mutagenesis on pET21a-TgCBS; also called C-terminally truncated TgCBS; truncated TgCBS; source: E. coli Rosetta (DE3), purified (Ni-sepharose, as the wild-type enzyme); not shown: His6, N-terminal, kept
As for B1, the “stoichiometry N” value in series [2] is 2 and 4; in series [3], ~4 and ~2.

B2: Full-length cystathionine beta-synthase from Toxoplasma gondii (enzyme, UniProt A0A125YSJ9 1-514, looked up)
chain: MNGKFADGPYSGILDSVLDAIGNTPMVRMKRLAKVYGLECDLLAKCEFMSAGGSVKDRIGKAMVEKAEREGRLKAGDTLIEPTSGNTGIGLALAAAVRGYRMIVTMPAKMSAEKSNIMKCLGAEIVRTPTEAAWNDENSHMGVAAKLQRELENAHILDQYNNTANPMVHYDVTAEEIITQCDGDIDMVVIGAGTGGTITGIGRKIKERCPKCKVVGVDPKGSILAVPDSLNDEKRLQSYEVEGIGYDFVPGVLDRKVVDEWVKVGDAESFTTARAIIRNEGLFVGGSSGANVWGALQAARQLKKGQKCVVLLPDSSRNYMSKFISDEWMAEHGFAPEDGAKVKEREKQFGGARIRDLLSETGATSDVPFVTARLSVEDVIKMMHETKVKEVIVTEDSEADGKTKLVGVLSEDHIAHSLQSGRCAMQSPVKDIAFKKLAKALPSAYLRDVAKALDFSPYVCVMDEKPSTKKQAGMGEHERAKISLRKAGNSRECPHFLGVITRIDLLHWLATKQK
notes: the cited crystal structure PDB 6XWL is of a construct lacking an internal loop (TgCBS Δ466-491); PLP-dependent enzyme; also called TgCBS; full-length TgCBS; source: E. coli Rosetta (DE3), purified (Ni-sepharose); not shown: His6, N-terminal, kept
Consider B2, for which the “stoichiometry N” value in series [2] is 2 and 4.
